Experimental data as given in patent US20260297190 (published 2026).
Where a chain is given by its changes, count along the chain named.

B1: DARPin protein #2 (designed binder)
chain: DLGIKLLHAAFQGQDDEVRILLAAGADVNAKDKVGRTPLHRAAQWGHLEIVEVLLKAGADVNAKDHVGWTPLHLAAWRGHLEIVEVLLKAGADVNAQDASGFTPADLAARQGHEDIAEVLQKAA
B2: DARPin protein #5 (designed binder)
chain: DLGRKLLQAAARGQDDEVRELLKAGADVNAKDLLGRTPLHLAASIGHLEIVEVLLKAGADVNAKDERGFTPLHIAALQGHLEIVEVLLKAGADVNAQDLEGRTPADLAAEEGHEDIAEVLQKAA
B3: DARPin protein #8 (designed binder)
chain: B2 chain with R4K, E66S, I74L, L77I, Q78I, E100K, R102L, E110A
B4: DARPin protein #3 (designed binder)
chain: DLGRKLLQAAARGQDDEVRELLKAGADVNAKDLHGRTPLHLAAAIGHLEIVEVLLKAGADVNAKDFLGWTPLHIAAFRGHLEIVEVLLKAGADVNAQDEAGETPADLAAQEGHEDIAEVLQKAA
B5: DARPin protein #1 (designed binder)
chain: ALGKKLLQAAARGQDDEVRELLKAGADVNAKDLIGRTPLHLAASIGHLEIVEVLLKAGADVNAKDSRGWTPLHIAAVSGHLEIVEVLLKAGADVNAQDRAGATPADLAAAEGNEDIAEVLQKAA
B6: DARPin protein #6 (designed binder)
chain: B4 chain with F66V, L67F, W69Y, A100R, Q110E, E111A
B7: DARPin protein #7 (designed binder)
chain: B2 chain with R4E, Q8K, F69Y, L77I, Q78V, L99A, E100R, R102A, E110R
B8: DARPin protein #4 (designed binder)
chain: DLGKKLLQAAARGQDDEVRELLKAGADVNAKDLKGRTPLHLAAATGHPEIVEVLLKAGADVNAKDQFGYTPLHIAAAWGHLEIVEVLLKAGADVNAQDQKGETPADLAAKEGHEDIAEVLQKAA

Target: CD47 on Raji cells (human, UniProt Q08722)
Experiment: FACS, Raji cells, 4C

Chain of CD47 on Raji cells (Q08722 19-323): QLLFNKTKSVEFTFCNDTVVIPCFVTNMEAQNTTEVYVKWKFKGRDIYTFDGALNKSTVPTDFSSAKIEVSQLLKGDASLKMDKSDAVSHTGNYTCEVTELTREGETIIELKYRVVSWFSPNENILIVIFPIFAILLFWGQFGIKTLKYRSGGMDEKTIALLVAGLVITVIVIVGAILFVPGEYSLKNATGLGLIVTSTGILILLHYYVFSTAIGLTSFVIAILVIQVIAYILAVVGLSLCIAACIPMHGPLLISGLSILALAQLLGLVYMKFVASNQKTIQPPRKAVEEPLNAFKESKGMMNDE

Binder | EC50
B1 | 20.9 nM
B2 | 45.5 nM
B3 | 17.2 nM
B4 | 58.4 nM
B5 | 40.4 nM
B6 | 48 nM
B7 | 28.5 nM
B8 | 74.7 nM

Target: human CD47-Fc (human)
Experiment: SPR

Chain of human CD47-Fc (human) (chain, as listed by the source): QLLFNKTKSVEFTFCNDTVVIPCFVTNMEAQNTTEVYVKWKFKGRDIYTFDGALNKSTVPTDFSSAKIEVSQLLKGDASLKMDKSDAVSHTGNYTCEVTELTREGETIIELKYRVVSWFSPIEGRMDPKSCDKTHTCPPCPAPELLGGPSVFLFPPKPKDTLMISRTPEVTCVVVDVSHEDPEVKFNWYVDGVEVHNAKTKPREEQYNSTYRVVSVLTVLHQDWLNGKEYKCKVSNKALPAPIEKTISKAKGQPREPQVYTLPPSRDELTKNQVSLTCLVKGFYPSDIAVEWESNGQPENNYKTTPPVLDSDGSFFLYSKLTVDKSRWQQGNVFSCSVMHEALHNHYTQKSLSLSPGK

Binder | Kd
B1 | 0.813 nM
B2 | 0.552 nM
B3 | 0.102 nM
B4 | 0.562 nM
B5 | 0.328 nM
B6 | 0.24 nM
B7 | 0.352 nM
B8 | 0.244 nM
